The target of the assay is T1, Codanin-1-C (fragment of Codanin-1, amino acids P800-S1227) (human, UniProt Q8IWY9 800-1227).
T1 construct: Codanin-1, amino acids P800-S1227; Plasmid pET28a 6His z-basic TEV CDAN1^P800-S1227; the text speaks only of the hexahistidine tag being cleaved with TEV; that z-basic goes with it follows from the order in the plasmid's name; also called CDAN1^P800-S1227; source: E. coli, purified (Ni2+-NTA agarose, tag cleaved with His-TEV protease); not shown: His6, N-terminal, cleaved; z-basic, N-terminal, …
T1 sequence (looked up): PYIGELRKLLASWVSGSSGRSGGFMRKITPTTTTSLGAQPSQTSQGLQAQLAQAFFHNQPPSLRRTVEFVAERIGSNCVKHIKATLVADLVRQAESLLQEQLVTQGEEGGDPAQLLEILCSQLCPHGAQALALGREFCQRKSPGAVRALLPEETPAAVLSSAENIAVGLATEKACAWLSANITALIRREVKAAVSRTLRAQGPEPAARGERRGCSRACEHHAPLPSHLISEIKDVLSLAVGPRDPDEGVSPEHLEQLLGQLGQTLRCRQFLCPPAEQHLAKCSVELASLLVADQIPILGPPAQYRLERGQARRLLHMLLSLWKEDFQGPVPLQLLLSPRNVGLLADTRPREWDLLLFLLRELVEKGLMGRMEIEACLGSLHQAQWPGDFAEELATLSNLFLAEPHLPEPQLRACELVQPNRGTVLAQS
The assay can be described thus: pull-down + SEC; purified His6-C15ORF41 re-bound to Ni2+-NTA agarose, excess of purified Codanin-1-C passed over, eluted with 400 mM imidazole, Superdex 200 16/60 in 50 mM Tris pH 7.5, 500 mM NaCl, 5% glycerol, 0.5 mM TCEP. The settings on record: both partners purified.

B1: His6-C15ORF41 bearing the solubilising mutations V18M, C223S and W237R (natural protein, human, UniProt Q9Y2V0 1-281, looked up)
chain: MILTKAQYDEIAQCLVSMPPTRQSLRKLKQRFPSQSQATLLSIFSQEYQKHIKRTHAKHHTSEAIESYYQRYLNGVVKNGAAPVLLDLANEVDYAPSLMARLILERFLQEHEETPPSKSIINSMLRDPSQIPDGVLANQVYQCIVNDCCYGPLVDCIKHAIGHEHEVLLRDLLLEKNLSFLDEDQLRAKGYDKTPDFILQVPVAVEGHIIHWIESKASFGDESSHHAYLHDQFWSYRNRFGPGLVIYWYGFIQELDCNRERGILLKACFPTNIVTLCHSIA
notes: C15ORF41 (CDIN1) with the extra mutations V18M, C223S and W237R; Plasmid pNIC28 Bsa4 6His Tev C15ORF41^(V18M C223S W237R), a gift from J. Newman (SGC Oxford); preparations held bacterial ArnA as a contaminant; also called C15ORF41^(V18M C223S W237R); source: E. coli, purified (Ni2+-NTA agarose, dialysis); not shown: His6, N-terminal, kept
For the molecule B1, the binding result was “binds”.

The values are drawn from paper PMC7261414, “A complex comprising C15ORF41 and Codanin-1: the products of two genes mutated in congenital dyserythropoietic anaemia type I (CDA-I)” (Biochemical Journal, 2020).
